The values that follow come from US20180186873A1 (CEPHALON, published 2018).

For orientation: Kd means the concentration at which binding is half-saturated. As usually defined, the koff is a measure of how fast the partners let go of each other. The kon is the rate constant with which the complex forms.

The target of test [1] is T1, recombinant human IL-5 (human, UniProt P05113 20-134). Kind of test: SPR, purified Ab on Protein A chip, IL-5 analyte, run 3.2. For orientation: SPR reads the build-up and loss of mass on a sensor chip optically.
The target of test [2] is T1, recombinant human IL-5. Kind of test: SPR, Ab supernatant on Protein A chip, IL-5 analyte, run 3.2, average of 5.
Test [3] concerns the target T2, recombinant human IL-5 (human, UniProt P05113 20-134). The experiment in a line: Biacore SPR run 5.1.
Test [4] has as its target T2, recombinant human IL-5. Kind of test: Biacore SPR run 5.1. The source holds these as a separate data set.
For test [5], the target named is T2, recombinant human IL-5. Kind of test: Biacore SPR run 5.1. This is another data set of the same source.
For test [6], the target named is T3, recombinant human IL-5 (human, UniProt P05113 20-134). Kind of test: Biacore SPR, purified Ab on Protein A chip.
In test [7] the target is T3, recombinant human IL-5. The experiment in a line: Biacore SPR, Ab supernatant on Protein A chip, average of replicates.
Test [8] concerns the target T3, recombinant human IL-5. The experiment in a line: Biacore SPR, Ab supernatant on Protein A chip.
For test [9], the target named is T4, recombinant human IL-5 (human, UniProt P05113 20-134). The experiment in a line: SPR.
The target in test [10] is T4, recombinant human IL-5. Kind of test: SPR. This is another data set of the same source.
Test [11] has as its target T4, recombinant human IL-5. The experiment in a line: SPR. This is another data set of the same source.
For test [12], the target named is T4, recombinant human IL-5. The experiment in a line: SPR. The source holds these as a separate data set.
Test [13] concerns the target T4, recombinant human IL-5. The experiment in a line: SPR. This is another data set of the same source.
The target of test [14] is T4, recombinant human IL-5. Kind of test: SPR. The source holds these as a separate data set.
The target in test [15] is T5, recombinant human IL-5 (human, UniProt P05113 20-134). Kind of test: SPR Biacore, Ab on Protein A chip, human IL-5 analyte, run 4.1, replicate 3.
Test [16] concerns the target T5, recombinant human IL-5. The experiment in a line: SPR Biacore, Ab on Protein A chip, human IL-5 analyte, run 4.1, replicate 4.
The target in test [17] is T5, recombinant human IL-5. Kind of test: SPR Biacore, Ab on Protein A chip, human IL-5 analyte, run 4.1, average.
Test [18] deals with T5, recombinant human IL-5. Kind of test: SPR Biacore, Ab on Protein A chip, human IL-5 analyte, run 4.1, replicate 5.
Test [19] concerns the target T5, recombinant human IL-5. The experiment in a line: SPR Biacore, Ab on Protein A chip, human IL-5 analyte, run 4.1, replicate 1.
In test [20] the target is T5, recombinant human IL-5. Kind of test: SPR Biacore, purified Ab on Protein A chip, human IL-5 analyte, run 4.1.
For test [21], the target named is T5, recombinant human IL-5. The experiment in a line: SPR Biacore, Ab on Protein A chip, human IL-5 analyte, run 4.1, replicate 2.
Test [22] concerns the target T4, recombinant human IL-5. Kind of test: SPR. The source holds these as a separate data set.

Positions count from the first letter of the chain named. Where “and” joins values, the source holds several entries; their conditions need not be identical. Equal entries are not always repeated.

B1: 3A5.040 (antibody, human IgG4 S228P, lambda)
heavy: not shown
light: SYVLTQPPSVSVAPGQTARITCGGNNIGSKNVYWYQQKPGQAPVLVVHDDSDRPSGIPERFSGSNSGNTATLTISRVEVGDEADYSCQVWDSSSDHVVFGGGTKLTVLGQPKAAPSVTLFPPSSEELQANKATLVCLISDFYPGAVTVAWKADSSPVKAGVETTTPSKQSNNKYAASSYLSLTPEQWKSHRSYSCQVTHEGSTVEKTVAPTECS
Regarding B1, in the test with recombinant human IL-5 [1], the Kd stood at 0.116 nM, the koff was 8.25e-05 s⁻¹ and the association rate constant (kon) was determined as 712000 M⁻¹ s⁻¹. In addition, in the test with recombinant human IL-5 [2], the dissociation constant (Kd) amounted to 0.131 nM, the koff amounted to 9.07e-05 s⁻¹ and the kon is 695000 M⁻¹ s⁻¹.

B2: 3A5.040 (antibody, human IgG4 S228P, lambda)
heavy: not shown
light: B1 light
As to B2, in the test with recombinant human IL-5 [3], the Kd was 0.186 nM and 0.175 nM and 0.187 nM and 0.177 nM; the koff is 0.000122 s⁻¹ and 0.000112 s⁻¹ and 0.000125 s⁻¹ and 0.000117 s⁻¹; the on-rate constant (kon) is 656000 M⁻¹ s⁻¹ and 643000 M⁻¹ s⁻¹ and 667000 M⁻¹ s⁻¹ and 663000 M⁻¹ s⁻¹. In the test with recombinant human IL-5 [4], the equilibrium dissociation constant (Kd) was 0.181 nM, the off-rate (koff) is 0.000119 s⁻¹ and the kon came out at 657000 M⁻¹ s⁻¹. For the same molecule, in the test with recombinant human IL-5 [5], the Kd was 0.153 nM, the dissociation rate constant (koff) was 0.000108 s⁻¹ and the kon is 707000 M⁻¹ s⁻¹.

B3: 3A5.040 (antibody, human IgG4 S228P, lambda)
heavy: not shown
light: B1 light
For the molecule B3, the Kd was 0.092 nM in the test with recombinant human IL-5 [6]; 0.149 nM with recombinant human IL-5 [7]; 0.148 nM and 0.149 nM in the test with recombinant human IL-5 [8]. Further, the koff is 6.63e-05 s⁻¹ with recombinant human IL-5 [6]; 0.000105 s⁻¹ with recombinant human IL-5 [7]; 0.000103 s⁻¹ and 0.000106 s⁻¹ with recombinant human IL-5 [8]. Moreover, the kon is 721000 M⁻¹ s⁻¹ in the test with recombinant human IL-5 [6]; 703000 M⁻¹ s⁻¹ with recombinant human IL-5 [7]; 696000 M⁻¹ s⁻¹ and 710000 M⁻¹ s⁻¹ with recombinant human IL-5 [8].

B4: 3A5.040 (antibody, human IgG4 S228P, lambda)
heavy: not shown
light: B1 light
For B4, the Kd in the test with recombinant human IL-5 [9] worked out at 0.128 nM; with recombinant human IL-5 [10] it was 0.123 nM; with recombinant human IL-5 [11], 0.16 nM; with recombinant human IL-5 [12], 0.148 nM; with recombinant human IL-5 [13], 0.143 nM; with recombinant human IL-5 [14], 0.139 nM. Also, the koff in the test with recombinant human IL-5 [9] is 9.21e-05 s⁻¹; with recombinant human IL-5 [10], 8.96e-05 s⁻¹; with recombinant human IL-5 [11], 0.000115 s⁻¹; with recombinant human IL-5 [12], 0.000106 s⁻¹; with recombinant human IL-5 [13], 9.95e-05 s⁻¹; in the test with recombinant human IL-5 [14], 9.91e-05 s⁻¹. Moreover, the kon came out at 718000 M⁻¹ s⁻¹ with recombinant human IL-5 [9]; 727000 M⁻¹ s⁻¹ with recombinant human IL-5 [10]; 720000 M⁻¹ s⁻¹ with recombinant human IL-5 [11]; 717000 M⁻¹ s⁻¹ with recombinant human IL-5 [12]; 696000 M⁻¹ s⁻¹ with recombinant human IL-5 [13]; 715000 M⁻¹ s⁻¹ with recombinant human IL-5 [14].

B5: 3A5.040 (antibody, human IgG4 S228P, lambda)
heavy: not shown
light: B1 light
On to B5, for which the Kd is 0.109 nM in the test with recombinant human IL-5 [15]; 0.105 nM in the test with recombinant human IL-5 [16]; 0.106 nM with recombinant human IL-5 [17]; 0.0937 nM with recombinant human IL-5 [18]; 0.116 nM with recombinant human IL-5 [19]; 0.103 nM with recombinant human IL-5 [20]. In the test with recombinant human IL-5 [21], the Kd turned out to be 0.104 nM. Besides, the koff came to 0.000112 s⁻¹ with recombinant human IL-5 [15]; 0.000106 s⁻¹ in the test with recombinant human IL-5 [16]; 0.000107 s⁻¹ in the test with recombinant human IL-5 [17]; 9.29e-05 s⁻¹ with recombinant human IL-5 [18]; 0.000116 s⁻¹ with recombinant human IL-5 [19]; 0.000109 s⁻¹ with recombinant human IL-5 [20]. In addition, the off-rate constant (koff) with recombinant human IL-5 [21] turned out to be 0.000107 s⁻¹. Besides, the kon was determined as 1.03e+06 M⁻¹ s⁻¹ with recombinant human IL-5 [15]; 1.01e+06 M⁻¹ s⁻¹ in the test with recombinant human IL-5 [16]; 1.01e+06 M⁻¹ s⁻¹ with recombinant human IL-5 [17]; 991000 M⁻¹ s⁻¹ in the test with recombinant human IL-5 [18]; 1e+06 M⁻¹ s⁻¹ with recombinant human IL-5 [19]; 1.06e+06 M⁻¹ s⁻¹ in the test with recombinant human IL-5 [20]. Also, in the test with recombinant human IL-5 [21], the kon was found to be 1.02e+06 M⁻¹ s⁻¹.

B6: 3A5.482 (antibody, human IgG4 S228P, lambda, name in Kabat numbering, V domains shown)
VH: QVQLQESGPGLVKPSQTLSLTCTVSGGSISNGGYYWSWIRQHPGKGLEWIGYIYYSGSTYYNPSLKSRVTISVDTSKNQFSLKLSSVTAADTAVYYCLSLGNWFDYWGQGTLVTVSS
VL: SYVLTQPPSVSVAPGQTARITCGGNNIGSKNVYWYQQKPGQAPVLVVHDDSDRPSGIPERFSGSNSGNTATLTISRVEVGDEADYSCQVWDSSSDHVVFGGGTKLTVLG
As for B6, in the test with recombinant human IL-5 [8], the “% 3A5.040 kd” value was determined as 52% and the Kd was determined as 0.79 nM.

B7: 3A5.481 (antibody, human IgG4 S228P, lambda, name in Kabat numbering, V domains shown)
VH: B6 VH with L98S
VL: B6 VL
On to B7, for which, in the test with recombinant human IL-5 [8], the “% 3A5.040 kd” value was 112% and the equilibrium dissociation constant (Kd) was 0.13 nM.

B8: 3A5.495 (antibody, human IgG4 S228P, lambda, name in Kabat numbering, V domains shown)
VH: B6 VH with L98A, S99K
VL: B6 VL
Take B8: in the test with recombinant human IL-5 [22], the “% 3A5.040 kd” value was determined as 34% and the dissociation constant (Kd) came to 0.431 nM.

B9: 3A5.498 (antibody, human IgG4 S228P, lambda, name in Kabat numbering, V domains shown)
VH: B6 VH with L98A, S99P
VL: B6 VL
On to B9, for which, in the test with recombinant human IL-5 [22], the “% 3A5.040 kd” value amounted to 85% and the Kd is 0.263 nM.

B10: 3A5.496 (antibody, human IgG4 S228P, lambda, name in Kabat numbering, V domains shown)
VH: B6 VH with L98A, S99H
VL: B6 VL
B10: in the test with recombinant human IL-5 [8], the “% 3A5.040 kd” value came to 2% and the Kd amounted to 2.11 nM.

B11: 3A5.490 (antibody, human IgG4 S228P, lambda, name in Kabat numbering, V domains shown)
VH: B6 VH with L98A, S99A
VL: B6 VL
Turning to B11, the Kd in the test with recombinant human IL-5 [8] was 0.128 nM.

B12: 3A5.494 (antibody, human IgG4 S228P, lambda, name in Kabat numbering, V domains shown)
VH: B6 VH with L98A, S99Q
VL: B6 VL
With B12, in the test with recombinant human IL-5 [8], the “% 3A5.040 kd” value was determined as 16% and the Kd is 0.945 nM.

B13: 3A5.497 (antibody, human IgG4 S228P, lambda, name in Kabat numbering, V domains shown)
VH: B6 VH with L98A, S99W
VL: B6 VL
In the case of B13, in the test with recombinant human IL-5 [22], the “% 3A5.040 kd” value worked out at 3% and the Kd was determined as 1.75 nM.

B14: 3A5.492 (antibody, human IgG4 S228P, lambda, name in Kabat numbering, V domains shown)
VH: B6 VH with L98A, S99Y
VL: B6 VL
With B14, in the test with recombinant human IL-5 [8], the “% 3A5.040 kd” value was found to be 10% and the Kd came to 3.37 nM.

B15: 3A5.491 (antibody, human IgG4 S228P, lambda, name in Kabat numbering, V domains shown)
VH: B6 VH with L98A, S99L
VL: B6 VL
Turning to B15, in the test with recombinant human IL-5 [8], the “% 3A5.040 kd” value was 13% and the Kd amounted to 1.52 nM.

B16: 3A5.485 (antibody, human IgG4 S228P, lambda, name in Kabat numbering, V domains shown)
VH: B6 VH with L98Q
VL: B6 VL
Turning to B16, in the test with recombinant human IL-5 [8], the “% 3A5.040 kd” value was 105% and the Kd was determined as 0.154 nM.
